The supplement of paper PMC12855868

B1: library; numbered along this chain (parent)
chain: MAAAGGARLLRAASAVLGGPAGRWLHHAGSRAGSSGLLRNRGPGGSAEASRSLSVSARARSSSEDKITVHFINRDGETLTTKGKVGDSLLDVVVENNLDIDGFGACEGTLACSTCHLIFEDHIYEKLDAITDEENDMLDLAYGLTDRSRLGCQICLTKSMDNMTVRVPETVADARQSIDVGKTS

Variants of: B1
Assay: scaled log2 fold change in cell abundance, elesclomol vs control (0 = silent mean, 1 = nonsense mean) (scaled log2 ratio); higher = higher viability under elesclomol (loss of FDX1 cuproptosis function)
Conditions: glucose 10 mM
[1] = with ABC1 FDX1 KO, elesclomol 5 nM, 14 days
[2] = with HEK293T FDX1 KO, elesclomol 40 nM, 11 days
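Also: variant abundance is its share of total variant reads in each endpoint sample, from next-generation sequencing of the integrated ORF PCR-amplified out of genomic DNA.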

## R39A
[1]
  scaled log2 fold change: 0.0642
[2]
  scaled log2 fold change: -0.565

## V180Q
[1]
  scaled log2 fold change: 0.0492
[2]
  scaled log2 fold change: -0.00162

## V180E
[1]
  scaled log2 fold change: -0.352
[2]
  scaled log2 fold change: -0.141

## W24Q
[1]
  scaled log2 fold change: -0.175
[2]
  scaled log2 fold change: 0.364

## W24L
[1]
  scaled log2 fold change: 0.45

## W24V
[1]
  scaled log2 fold change: 0.155
[2]
  scaled log2 fold change: -0.39

## G42N
[1]
  scaled log2 fold change: 0.133
[2]
  scaled log2 fold change: -0.235

## G42H
[1]
  scaled log2 fold change: 0.257
[2]
  scaled log2 fold change: -0.419

## S50H
[1]
  scaled log2 fold change: 0.126
[2]
  scaled log2 fold change: 0.0217

## S50K
[1]
  scaled log2 fold change: -0.433

## S50W
[1]
  scaled log2 fold change: -0.149

## S50R
[1]
  scaled log2 fold change: -0.0286
[2]
  scaled log2 fold change: 0.0212

## A59F
[1]
  scaled log2 fold change: 0.319
[2]
  scaled log2 fold change: -0.721

## A59Q
[1]
  scaled log2 fold change: 0.564
[2]
  scaled log2 fold change: -0.702

## A59G
[1]
  scaled log2 fold change: -0.424
[2]
  scaled log2 fold change: -0.916

## A59I
[1]
  scaled log2 fold change: 0.202
[2]
  scaled log2 fold change: 0.473

## G86N
[1]
  scaled log2 fold change: 0.233

## G86L
[1]
  scaled log2 fold change: 0.171
[2]
  scaled log2 fold change: 0.00376

## R60M
[1]
  scaled log2 fold change: -0.213
[2]
  scaled log2 fold change: 0.72

## K66Y
[1]
  scaled log2 fold change: -0.0452
[2]
  scaled log2 fold change: -0.0505

## K66M
[1]
  scaled log2 fold change: -0.188
[2]
  scaled log2 fold change: -0.226

## K66Q
[1]
  scaled log2 fold change: -0.382
[2]
  scaled log2 fold change: 0.00416

## L117V
[1]
  scaled log2 fold change: 0.152
[2]
  scaled log2 fold change: 0.867

## G102D
[1]
  scaled log2 fold change: -0.0623
[2]
  scaled log2 fold change: -0.526

## A57I
[1]
  scaled log2 fold change: 0.296

## N97S
[1]
  scaled log2 fold change: -0.104
[2]
  scaled log2 fold change: 0.254

## P43K
[1]
  scaled log2 fold change: 0.0332
[2]
  scaled log2 fold change: 0.445

## P43G
[1]
  scaled log2 fold change: 0.283
[2]
  scaled log2 fold change: 0.825

## P43T
[1]
  scaled log2 fold change: 0.0182
[2]
  scaled log2 fold change: -0.259

## V16I
[1]
  scaled log2 fold change: -0.31

## C112I
[1]
  scaled log2 fold change: 0.989
[2]
  scaled log2 fold change: 1.33

## K158A
[1]
  scaled log2 fold change: -0.146
[2]
  scaled log2 fold change: 0.138

## K158G
[1]
  scaled log2 fold change: -0.426
[2]
  scaled log2 fold change: -0.842

## T131S
[1]
  scaled log2 fold change: 0.0867

## H70Y
[1]
  scaled log2 fold change: 0.0486

## H70M
[1]
  scaled log2 fold change: -0.0655
[2]
  scaled log2 fold change: 0.0916

## H70Q
[1]
  scaled log2 fold change: 0.0254
[2]
  scaled log2 fold change: -0.0243

## A21Q
[1]
  scaled log2 fold change: -0.931
[2]
  scaled log2 fold change: 0.318

## A21D
[1]
  scaled log2 fold change: 0.168
[2]
  scaled log2 fold change: -0.0523

## L150R
[1]
  scaled log2 fold change: 1.05
[2]
  scaled log2 fold change: 0.41

## V93C
[1]
  scaled log2 fold change: -0.0745
[2]
  scaled log2 fold change: 0.258

## L144S
[1]
  scaled log2 fold change: -0.409
[2]
  scaled log2 fold change: 0.564

## L98R
[1]
  scaled log2 fold change: 0.136
[2]
  scaled log2 fold change: 0.607

## L98F
[1]
  scaled log2 fold change: -0.0232
[2]
  scaled log2 fold change: -0.902

## E48M
[1]
  scaled log2 fold change: 0.829
[2]
  scaled log2 fold change: 0.835

## E48R
[1]
  scaled log2 fold change: 0.787
[2]
  scaled log2 fold change: 0.683

## D121F
[1]
  scaled log2 fold change: 0.353

## D121M
[1]
  scaled log2 fold change: -0.556
[2]
  scaled log2 fold change: 1.79

## D121I
[1]
  scaled log2 fold change: 0.217

## Q153Y
[1]
  scaled log2 fold change: 0.621
[2]
  scaled log2 fold change: 0.0427

## G18E
[1]
  scaled log2 fold change: -0.165
[2]
  scaled log2 fold change: -0.152

## I178E
[1]
  scaled log2 fold change: 0.2
[2]
  scaled log2 fold change: -0.114

## I178D
[1]
  scaled log2 fold change: 0.156
[2]
  scaled log2 fold change: 1.21

## A4V
[1]
  scaled log2 fold change: -0.0619
[2]
  scaled log2 fold change: -0.566

## A4Q
[1]
  scaled log2 fold change: -0.35

## A4W
[1]
  scaled log2 fold change: 0.154
[2]
  scaled log2 fold change: -0.542

## H116G
[1]
  scaled log2 fold change: 0.0557
[2]
  scaled log2 fold change: -0.405

## H116T
[1]
  scaled log2 fold change: 0.317
[2]
  scaled log2 fold change: -0.824

## H116K
[1]
  scaled log2 fold change: 0.464
[2]
  scaled log2 fold change: -0.0313

## G76N
[1]
  scaled log2 fold change: -0.0936
[2]
  scaled log2 fold change: -0.272

## G6S
[1]
  scaled log2 fold change: -0.502
[2]
  scaled log2 fold change: -0.676

## G6M
[1]
  scaled log2 fold change: -0.159
[2]
  scaled log2 fold change: -0.651
